A short description of this data set: protein stability index of a GFP-peptide fusion (GPS, HEK-293T) (PSI 1-6); higher = more stable. Particulars: c terminus: a fixed tail appended.

Consider 29 sequences from the supplement of paper PMC10567573.

± gives the standard deviation.
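Further: 24-mer peptide tiles fused after GFP, lentivirally expressed, FACS-sorted into six equal bins by GFP/DsRed ratio, decoded by Illumina sequencing, PSI is the read-weighted mean bin number.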

Consider RLQEVRESIRRAQVSQVKGAARLA [FCHSD1], for which the protein stability index is 3.17 ± 0.45 (treatment: DMSO) and 3.3 ± 0.28 (treatment: MLN4924 1 uM, 8 h).
Consider RNPDQRKESLCISITVSKVDKDQP [FBXO34], for which the protein stability index is 3.6 ± 0.41 (treatment: DMSO) and 3.88 ± 0.24 (treatment: MLN4924 1 uM, 8 h).
The like results for RPQHSHSNKKRPSLDGRDPGNGTH [ELOA2] were, in that order, 4.94 ± 0.44 and 4.82 ± 0.39.
On to RQDAKYLNMRSTYAKLAAVAVFFI [SEC22B], for which the protein stability index came out at 2.35 ± 0.4 (treatment: DMSO) and 2.15 ± 0.25 (treatment: MLN4924 1 uM, 8 h).
The like results for RQDSPSPDFYKQSSPNLQVSSDGT [PCDHGC5] were, in that order, 4.86 ± 0.34 and 4.88 ± 0.18.
Regarding RQVRDKTLKRGYFQKSLVLISKLP [DENND6A], the protein stability index reads like this: (treatment: DMSO) 2.27 ± 0.15; (treatment: MLN4924 1 uM, 8 h) 2.36 ± 0.41.
On to RRLRGEQRGQEPLGPGALHFDLRD [TCF25], for which the protein stability index was 4.24 ± 0.22 (treatment: DMSO) and 4.43 ± 0.21 (treatment: MLN4924 1 uM, 8 h).
As to RRPVNVPLDMFSEEIKFYELGEEA [KCNA1], the protein stability index by setting is: (treatment: DMSO) 3.62 ± 0.33; (treatment: MLN4924 1 uM, 8 h) 3.84 ± 0.17.
Sequence RRVDFCKDPSAIGKKQVPCFASML [CASP6] returned a protein stability index (treatment: DMSO) of 2.43 ± 0.17 and a protein stability index (treatment: MLN4924 1 uM, 8 h) of 2.54 ± 0.23.
Take RSGAGVALLNDHIYVVGGFDGTAH [KLHL12]: the protein stability index runs as follows: (treatment: DMSO) 2.78 ± 0.43; (treatment: MLN4924 1 uM, 8 h) 2.37 ± 0.46.
For RTVQSLEIDLDSMRNLKASLENSL [KRT18], in that order: 3.14 ± 0.45 and 3.25 ± 0.27.
With RVAAAAGSGPSPPGSPGHDRERQP [PI4K2A], the protein stability index is 5.31 ± 0.5 (treatment: DMSO) and 5.42 ± 0.27 (treatment: MLN4924 1 uM, 8 h).
Regarding RVRGRVGTIRPVRCPSSSLHMSQR [C22orf15], the protein stability index amounted to 3.14 ± 0.28 (treatment: DMSO) and 3.57 ± 0.19 (treatment: MLN4924 1 uM, 8 h).
For the sequence RVSAMRDYRGPDCRYLNFTKGEEI [MIA2], the protein stability index is, setting by setting: (treatment: DMSO) 3.02 ± 0.58; (treatment: MLN4924 1 uM, 8 h) 3.26 ± 0.49.
As to RWEPSGKAEPRLPDRVYIHPDSPA [TBX6], the protein stability index runs as follows: (treatment: DMSO) 3.98 ± 0.11; (treatment: MLN4924 1 uM, 8 h) 4.13 ± 0.18.
As for RYHRFISFALYLAGFCMFVLSLVK [CDS1], the protein stability index came to 2.02 ± 0.21 (treatment: DMSO) and 2.08 ± 0.44 (treatment: MLN4924 1 uM, 8 h).
For RYIVNGSHEANKLQDMLDGFIKKF [EIF5], the protein stability index runs as follows: (treatment: DMSO) 1.98 ± 0.23; (treatment: MLN4924 1 uM, 8 h) 2.17 ± 0.34.
For the sequence SAAHEVELQRQKEAEKLERQLALP [NOP53], the protein stability index is, setting by setting: (treatment: DMSO) 4.99 ± 0.33; (treatment: MLN4924 1 uM, 8 h) 5.19 ± 0.23.
As to SAAVRGHPRALPPDARPHRRPHEL [HAGHL], the protein stability index is 4.404 ± 0.036 (treatment: DMSO) and 4.47 ± 0.13 (treatment: MLN4924 1 uM, 8 h).
For SATLRSFEGLMGTIKSKVSGGKRA [TPD52L3], in that order: 3.51 ± 0.18 and 3.33 ± 0.56.
For the sequence SCEEVAASSASLEPMWSGSTMRRM [EMID1], the protein stability index is, setting by setting: (treatment: DMSO) 4.09 ± 0.3; (treatment: MLN4924 1 uM, 8 h) 4.35 ± 0.18.
Turning to SCKACGYRGMLDTHHKLCTFILKN [EIF5], the protein stability index (treatment: DMSO) amounted to 2.55 ± 0.35 and the protein stability index (treatment: MLN4924 1 uM, 8 h) was 2.77 ± 0.46.
SCPNGMSAENGLEKSGFSQHQNKS [DLC1] showed a protein stability index (treatment: DMSO) of 4.86 ± 0.17 and a protein stability index (treatment: MLN4924 1 uM, 8 h) of 5.06 ± 0.11.
For SDLNTNNLLFKPPVESHIQKNKKI [KMT2E], the protein stability index reads like this: (treatment: DMSO) 4.31 ± 0.16; (treatment: MLN4924 1 uM, 8 h) 4.45 ± 0.39.
Turning to SDSIAYDKGEKLLRCKLAAFYRLA [ADD1], the protein stability index runs as follows: (treatment: DMSO) 2.33 ± 0.49; (treatment: MLN4924 1 uM, 8 h) 2.34 ± 0.28.
Regarding SDTEAQCEVMQEIVDQVLEEDFDS [INTS3], the protein stability index is 5.56 ± 0.091 (treatment: DMSO) and 5.42 ± 0.34 (treatment: MLN4924 1 uM, 8 h).
In the case of SEEDGEARTQMILLRRSVEGASSD [PHTF1], the protein stability index runs as follows: (treatment: DMSO) 5.18 ± 0.21; (treatment: MLN4924 1 uM, 8 h) 5.23 ± 0.12.
In the case of SEKGKPYVDIQGLTASTMEILLDF [KLHL12], the protein stability index runs as follows: (treatment: DMSO) 2.06 ± 0.5; (treatment: MLN4924 1 uM, 8 h) 2.25 ± 0.6.
SESETSTMAAKKNRQSSDKQNGRV [C18orf25]: the protein stability index reads like this: (treatment: DMSO) 5.35 ± 0.17; (treatment: MLN4924 1 uM, 8 h) 5.16 ± 0.17.
